# B1: soluble HRP P. pastoris (Armoracia rusticana) (protein)
# chain: QLTPTFYDNSCPNVSNIVRDTIVNELRSDPRIAASILRLHFHDCFVNGCDASILLDNTTSFRTEKDAFGNANSARGFPVIDRMKAAVESACPRTVSCADLLTIAAQQSVTLAGGPSWRVPLGRRDSLQAFLDLANANLPAPFFTLPQLKDSFRNVGLNRSSDLVALSGGHTFGKNQCRFIMDRLYNFSNTGLPDPTLNTTYLQTLRGLCPLNGNLSALVDFDLRTPTIFDNKYYVNLEEQKGLIQSDQELFSSPNATDTIPLVRSFANSTQTFFNAFVEAMDRMGNITPLTGTQGQIRLNCRVVNSNS
# B2: refolded HRP E. coli (HRP C1A refolded from inclusion bodies) (Armoracia rusticana) (protein)
# chain: B1 chain
# Substrate: CCn1c(=NN=c2sc3cc(S(=O)(=O)O)ccc3n2CC)sc2cc(S(=O)(=O)O)ccc21
# Experiment: purified protein
# Conditions: 1 mM H2O2, 50 mM KH2PO4 pH 6.5, 30 °C
Protein,Vmax,Km (ABTS 0.005–10 mM),Vmax (ABTS 0.005–10 mM)
B1,152 µmol/min/mg,,
B2,,1250 ± 100 µM,62.5 µmol/min/mg
